In the nanobody polyreactivity screen of Harvey et al. (2022):

Assay: yeast display, Sf9 membrane polyspecificity reagent, FACS + sequencing; frameworks hold sequencing errors
Procedure, shortened: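 Nanobodies came from a synthetic yeast display library in Saccharomyces cerevisiae BJ5465, induced with galactose for 36–48 hours and stained for 1 hour at 4 °C with 10% biotinylated, detergent-solubilized Sf9 membrane reagent. Cells were enriched on streptavidin microbeads and then FACS-sorted, with low and high (top ~1%) gates set on anti-HA fluorescence for expression and streptavidin fluorescence for reagent binding. Each polyreactivity label reflects the gate a clone came from. Genes were amplified by colony PCR, sequenced by MiSeq 2 × 250 and filtered by CDR length.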

Sequence	polyreactivity (PSR sort gate)
QVQLVESGGGLVQAGGSLRLSCAASGSTFGYNAMGWYRQAPGKERELVAAISSDGSTNYADSVKGRFTISRDNSKNTVYLQMNSLKPEDTAVYYCAADDNGAWVRMDYWGHGTQVTVSS	low polyreactivity
QVQLVESGGGLVQAGGSLRLSCAASGSTFGYNAMGWYRQAPGKERELVAAISWRGGNTYYADSVKGRFTISRDNAKNTVYLQMNSLKPEDTAVYYCNKVWPRYYVHGGSRVPEYDYWGQGTQVTVSS	high polyreactivity
QVQLVESGGGLVQAGGSLRLSCAASGSTFGYNAMGWYRQAPGKERELVAAISYIGGSTYYADSVKGRFTISRDNAKNTVYLQMNSLKPEDTAVYYCNAAVRYYDRTVSPVKFDYWGQGTQVTVSS	high polyreactivity
QVQLVESGGGLVQAGGSLRLSCAASGSTFGYNDMGWYRQAPGKERELVAAISVSDSSTYYADSVKGRFTISRDNAKNTVYLQMNSLKPEDTAVYYCAAYIYYNYSRQYWYDYWGQGTQVTVSS	low polyreactivity
QVQLVESGGGLVQAGGSLRLSCAASGSTFGYNDMGWYRQAPGKERELVAAISVSDSSTYYADSVKGRFTISRDYAKNTVYLQMNCLKPEDTAVYYCAAEYYVGFTYRYEYWGQGTQVTVSS	low polyreactivity
QVQLVESGGGLVQAGGSLRLSCAASGSTFGYNTMGWYRQAPGNERELVAAITGTGRTNYADSVKGRFTISRDNAKNTVYLQMNRLNPEDTAVYYCNARQAGTRYKYGYYGRYYWGQGTQVTVSS	high polyreactivity
QVQLVESGGGLVQAGGSLRLSCAASGSTFGYYAMGWNRQAPGKERELVATITWSGGSTNYADSVKGRFTISRDNAKNTVYLQMYSLKPEDTAVYYCAADLKYWYFGLAFIEVDYWGQGTQVTVSS	low polyreactivity
QVQLVESGGGLVQAGGSLRLSCAASGSTFGYYAMGWYRQAPGKERELVAAISDGGSTYYADSVKGRFTISRDNAKNTVYLQMNSLKPEDTAVYYCAAEYLAYDWYEYYYWGQGTQVTVSS	high polyreactivity
QVQLVESGGGLVQAGGSLRLSCAASGSTFGYYAMGWYRQAPGKERELVAAITSGGSKKYADSVKGRFTISRDNAKNTVYLQMNSLKPEDTAVYYCATSRYFGYGYWGQGTQVTVSS	low polyreactivity
QVQLVESGGGLVQAGGSLRLSCAASGSTFGYYAMGWYRQAPGKERELVAGITSGGSTYYADSVKGRFTISRDNAKNTVYLQMNSLKPEDTAVYYCAKPVRHYRGRYFKYDYWGQGTQVTVSS	high polyreactivity
QVQLVESGGGLVQAGGSLRLSCAASGSTFGYYAMGWYRQAPGKERELVAVIRRGGSTNYADSVKGRFTISRDNAKNTVYLQMNSLKPEDTAVYYCNKYRYAGITAEFYYWGQGTQVTVSS	high polyreactivity
QVQLVESGGGLVQAGGSLRLSCAASGSTFGYYAMGWYRQAPGQERELVAAITSGGSTKYADSVKGRFTISRDNAKNTVYLQLISLKPEDNAVYYCATSRYFGYGYWGQGTQVTVSS	low polyreactivity
QVQLVESGGGLVQAGGSLRLSCAASGSTFGYYTMGWYRQAPGKERELVAAISWSGGRTYYADSVKGRFTISRDNAKNTVYLQMNSLKPEDTAVYYCAAPRYGGWRSYQKYDYWGQGTQVTVSS	high polyreactivity
QVQLVESGGGLVQAGGSLRLSCAASGSTFGYYTMGWYRQAPGKERELVAAITKSGGGTYYADSVKGRFTISRDNAKNTVYLQMNSLKPEDTAVYYCADYSRFTSDYWGQGTQVTVSS	high polyreactivity
QVQLVESGGGLVQAGGSLRLSCAASGSTFGYYTMGWYRQSPGKERELVAAITWRGGRTYYADSVKGRFTISRDNEKNTVYLQMNSLKPEDTAVYYCAARSTVVMDYWGQGTKVTVSS	high polyreactivity
QVQLVESGGGLVQAGGSLRLSCAASGSTFHDNAMGWYIQAPGKERELVAAISSGGRTNYADSVKGRFTISRDNAKNTVYLQMNSLKPEDTAVYYCAASFRRWYFYDRHEYGYWGQGTQVTVSS	low polyreactivity
QVQLVESGGGLVQAGGSLRLSCAASGSTFHDYAMGWYRQAPGKEREFVAAISVRGGSTYYADSVKGRFTISRDNAKNTVYLQMNSLKPEDTAVYYCNKLSSDSYNYWGQGTQVTVSS	high polyreactivity
QVQLVESGGGLVQAGGSLRLSCAASGSTFHFYAMGWYRQAHGKERELVASITSRGGNTHYADSVKGRFTISRDNAKNTVYFQMNSLKPEDTAVYYCAARKGTSWKAHFRFDYWGQGTQVTVSS	low polyreactivity
QVQLVESGGGLVQAGGSLRLSCAASGSTFHLYAMGWYRQAPGKERELVADIDLSGGSTYYADSVKGRFTISRDNAKNTVYLQMNSLKPEDTAVYYCAADHVSSLGFDYWGQGTQVTVSS	low polyreactivity
QVQLVESGGGLVQAGGSLRLSCAASGSTFHRKAMGWYRQAPGKERELVASISIGGSTNYADSVKGRFTISRDNAKNTVYLQMNSLKPEDTAVYYCATEPNPRRPRVDYDYWGQGTQVTVSS	low polyreactivity
QVQLVESGGGLVQAGGSLRLSCAASGSTFHRNAMGWYRPAQGKERELVASISIGGSTNYADSVKGRVTISRDNAKNTVYLQMNSLKPEDTAVYYCATEPNPRRPRVDYDYWGQGTQVTVSS	low polyreactivity
QVQLVESGGGLVQAGGSLRLSCAASGSTFHRNGMGWYRQAPGKERELVAAISRTGGSTYYADSEKGRFTISRDNAKNTVYLQMNSLKPEDTAVYYCAAQGNNYVRHTYGYWGQGTQVTVSS	low polyreactivity

Sequence	polyreactivity (PSR sort gate)
QVQLVESGGGLVQAGGSLRLSCAASGSTFHRYAMGWYRQAAGKERELVATITSRGGITYYADSVKGRFTISRDNAKNTVYLQMNSLKPEDTAVYYCNTEDGTTPQYGYDQGMYYWGQGTQVTVSS	low polyreactivity
QVQLVESGGGLVQAGGSLRLSCAASGSTFHRYTMGWYRQAPGKERELVAAISSGGRTYYADSVKGRFTISRDNAKNTVYLQKNSLKPEDTAVYYCNSRYPRQYWGGYDYWGQGTQVTVSS	high polyreactivity
QVQLVESGGGLVQAGGSLRLSCAASGSTFHRYVMGWYRQAPGKERELVAVINSTGGSTYYADSVKGRFTISRDNAKNTVYLQMNSLKPEDNAVYYCARVTRRGPGYTTLYSRYDYWGQGTQVTVSS	low polyreactivity
QVQLVESGGGLVQAGGSLRLSCAASGSTFHSYAMGRYRQAPGKEREFVAAITIRGGSTYYADSVKGRFTISRDNAKNTVYLQMNSLKPEDTAVYYCAALVWGSYARWRYYWGQGTQVTVSS	high polyreactivity
QVQLVESGGGLVQAGGSLRLSCAASGSTFHTYTMGWYRPAPGKERELVAGISRSGGSTYYAESVKGRFTISRDNAKNTVYLQMNSLKPEATAVYYCNALSSKTDTYDYWGQGTQVTVSS	high polyreactivity
QVQLVESGGGLVQAGGSLRLSCAASGSTFHWYVMGWYRQAPAKERELVAAITWSGGSTYYADSVKGRFTISRDNAKNTVYLQMNSLKPEDTAVYYCNAVFWIWNAGYDYWGQGTQVTVSS	low polyreactivity
QVQLVESGGGLVQAGGSLRLSCAASGSTFIFNTMGWYRQAPGKERELVASITGDGRTNYADSVKGRFTISRDNAKNTVYLQMNSLKPEDTAVYYCAADGYDQYPLWAPPGDYWGQGTQVTVSS	low polyreactivity
QVQLVESGGGLVQAGGSLRLSCAASGSTFIFYVMGWNRQAPGKERELVASITGNGTSTYYADSVKGRFTISRDNAKNTVYLQMNSLKPEDTAVYYCNAVFSPSRYDYWGQGTQVTVSS	low polyreactivity
QVQLVESGGGLVQAGGSLRLSCAASGSTFIIYAMGWYRQAPGKERELVAAISWSGGSTYYADSVKGRFTISRDNAKNTVYLQMNSLKPEDTAVYYCNAARYYTPWRTWYDYWGQGTQVTVSS	high polyreactivity
QVQLVESGGGLVQAGGSLRLSCAASGSTFINYAMGWYRQAPGKERELVAAISKGGGSTYYADSVKGRFTISRDNAKNTVYLQMTSLKPEDTAVYYCAATGRAGAGKRKYEYWGQGTQVTVSS	high polyreactivity
QVQLVESGGGLVQAGGSLRLSCAASGSTFIQYAMGWYRQAPGKERELVATIRWIGGSTYYADSVKGRFTISRDNAKNTVYLQMNSLKPEDTAVYYCAAGYEYVENGVDWYEYDYWGQGTQVTVSS	low polyreactivity
QVQLVESGGGLVQAGGSLRLSCAASGSTFIWNAMGWYRQAPGKVRELVAAISSGGSTYYADSVKGRFTISRDNAKNTVYLQMNSLKPEDTAVYYCAAEYVYNVSEQRYAVYSTDDYWGQGSQVTVSS	low polyreactivity
QVQLVESGGGLVQAGGSLRLSCAASGSTFIYNAMGWYRQAPGKERELVAAITWNGGSTYYADSVKGRFTISRDNAKNTVYLQMNSLKPEDTAVYYCAVDKGSQPHYDYWGQGTQVTVSS	low polyreactivity
QVQLVESGGGLVQAGGSLRLSCAASGSTFIYYAMGWYRQAPGKERELVASISRSGGSTYYADSVKGRFTISRDNAKNTVYLQMNSLKPEDTAVYYCAAVGWTYEYWEWYDYWGQGTQVTVSS	high polyreactivity
QVQLVESGGGLVQAGGSLRLSCAASGSTFIYYTMGWYRQAPGKERELVAAIPSSGGSTYYADSVKGRFTISRDNAKNTVYLQMNSLKPEDTAVYYCADDGTYIKFAKLYRRYDYWGQGTQVTVSS	low polyreactivity
QVQLVESGGGLVQAGGSLRLSCAASGSTFKAYAMGWYRQAPGKERELVAAITRRGTSTYYADSVKGRFTISRDNAKNTDYFQMNRLKPEDTAVFYCNAKYVSDRSSAVSFDYWVQGTQVTVSS	low polyreactivity
QVQLVESGGGLVQAGGSLRLSCAASGSTFKAYAMGWYRQAPGKERELVAAITRRGTSTYYADSVKGRFTISRDNAKNTVYLQMNSLNPEDTAVYYCNAKYVSDRSSAVSFDYWGQGTQVTVSS	low polyreactivity
QVQLVESGGGLVQAGGSLRLSCAASGSTFKAYAMGWYRQAPGKEWELVAAISASGGTTYYADSVKGRFTISRDNAKNTVYLQLKSLKPEDTAVYYCNARHPYTGGRRYPYTRYGYWGQGTQVTVSS	high polyreactivity
QVQLVESGGGLVQAGGSLRLSCAASGSTFKLYAMGWYRPAPGKERELVAAISYRGGTTYYADSVKGRFTISRDNAKNSVYLQMNSLKPEDTAVYYCAAGWRPRYLRDASKYDYWGQGTQVTVSS	low polyreactivity
QVQLVESGGGLVQAGGSLRLSCAASGSTFKLYAMGWYRPAPGKERELVAAITSNCGRTYYADSVKGRFTISRDIAKNTVYLQMNSLKPEDTAVYYCAARRYAPAGGYDYWGQGTQVTVSS	high polyreactivity
QVQLVESGGGLVQAGGSLRLSCAASGSTFKNNAMGWYRQAPGKEREFVASISKRGGSTYYADSVKGRFTISRDNAKNTVYLQMNSLKPEDTAVYYCGKTYWSYGWSHGDYGEFDYWGQGSQVTVSS	high polyreactivity
